In patent US9029508 (dated 2015):

T1: VEGF (human, UniProt P15692)
T1 chain: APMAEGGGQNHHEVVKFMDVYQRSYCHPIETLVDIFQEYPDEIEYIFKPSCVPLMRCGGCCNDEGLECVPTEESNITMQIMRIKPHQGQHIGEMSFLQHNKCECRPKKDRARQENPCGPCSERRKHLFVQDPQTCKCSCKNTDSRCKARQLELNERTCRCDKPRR

B1: DVD463 VEGF arm (antibody, V domains shown)
VH: EVQLVESGGGLVQPGGSLRLSCAASGFTINASWIHWVRQAPGKGLEWVGAIYPYSGYTNYADSVKGRFTISADTSKNTAYLQMNSLRAEDTAVYYCARWGHSTSPWAMDYWGQGTLVTVSS
VL: DIQMTQSPSSLSASVGDRVTITCRASQVIRRSLAWYQQKPGKAPKLLIYAASNLASGVPSRFSGSGSGTDFTLTISSLQPEDFATYYCQQSNTSPLTFGQGTKVEIKR
B2: DVD457 VEGF arm (antibody, V domains shown)
VH: B1 VH
VL: B1 VL
B3: DVD491 VEGF arm (antibody, V domains shown)
VH: B1 VH
VL: B1 VL
B4: DVD485 VEGF arm (antibody, V domains shown)
VH: B1 VH
VL: B1 VL
B5: DVD515 VEGF arm (antibody, V domains shown)
VH: B1 VH
VL: B1 VL
B6: DVD528 VEGF arm (antibody, V domains shown)
VH: B1 VH
VL: B1 VL
B7: DVD446 VEGF arm (antibody, V domains shown)
VH: B1 VH
VL: B1 VL
B8: DVD498 VEGF arm (antibody, V domains shown)
VH: B1 VH
VL: B1 VL
B9: DVD451 VEGF arm (antibody, V domains shown)
VH: B1 VH
VL: B1 VL
B10: DVD521 VEGF arm (antibody, V domains shown)
VH: B1 VH
VL: B1 VL
B11: DVD497 VEGF arm (antibody, V domains shown)
VH: B1 VH
VL: B1 VL
B12: DVD468 VEGF arm (antibody, V domains shown)
VH: B1 VH
VL: B1 VL
B13: DVD467 VEGF arm (antibody, V domains shown)
VH: B1 VH
VL: B1 VL
B14: DVD486 VEGF arm (antibody, V domains shown)
VH: B1 VH
VL: B1 VL
B15: DVD503 VEGF arm (antibody, V domains shown)
VH: B1 VH
VL: B1 VL
B16: DVD458 VEGF arm (antibody, V domains shown)
VH: B1 VH
VL: B1 VL
B17: DVD533 VEGF arm (antibody, V domains shown)
VH: B1 VH
VL: B1 VL
B18: DVD492 VEGF arm (antibody, V domains shown)
VH: B1 VH
VL: B1 VL
B19: DVD522 VEGF arm (antibody, V domains shown)
VH: B1 VH
VL: B1 VL
B20: DVD516 VEGF arm (antibody, V domains shown)
VH: B1 VH
VL: B1 VL
B21: DVD534 VEGF arm (antibody, V domains shown)
VH: B1 VH
VL: B1 VL
B22: DVD474 VEGF arm (antibody, V domains shown)
VH: B1 VH
VL: B1 VL
B23: DVD504 VEGF arm (antibody, V domains shown)
VH: B1 VH
VL: B1 VL
B24: DVD445 VEGF arm (antibody, V domains shown)
VH: B1 VH
VL: B1 VL
B25: DVD452 VEGF arm (antibody, V domains shown)
VH: B1 VH
VL: B1 VL
B26: DVD509 VEGF arm (antibody, V domains shown)
VH: B1 VH
VL: B1 VL
B27: DVD464 VEGF arm (antibody, V domains shown)
VH: B1 VH
VL: B1 VL
B28: DVD510 VEGF arm (antibody, V domains shown)
VH: B1 VH
VL: B1 VL
B29: DVD480 VEGF arm (antibody, V domains shown)
VH: B1 VH
VL: B1 VL
B30: DVD473 VEGF arm (antibody, V domains shown)
VH: B1 VH
VL: B1 VL
B31: DVD527 VEGF arm (antibody, V domains shown)
VH: B1 VH
VL: B1 VL
B32: DVD479 VEGF arm (antibody, V domains shown)
VH: B1 VH
VL: B1 VL

Biological target: T1, VEGF
Assay: ELISA

Binder	EC50 [nM]
B1	1730
B2	1480
B3	1250
B4	121
B5	3020
B6	27.7
B7	14.4
B8	30.6
B9	2400
B10	655
B11	858
B12	25.6
B13	1810
B14	28
B15	430
B16	21.5

Binder	EC50 [nM]
B17	1260
B18	8.42
B19	23.5
B20	24.6
B21	23.6
B22	17.9
B23	16.7
B24	14500
B25	17.8
B26	121
B27	19.3
B28	23.9
B29	23
B30	388
B31	2380
B32	456
